Data reported in patent publication US20180009871A1 (INTARCIA THERAPEUTICS, published 2018).
Where no end group is shown, it is not given here. [ ]: non-standard residue; d: D form. Aib = CC(C)(N)C(=O)O

Columns and labels:
[1] = target: human glucagon receptor (GCGR) (human, UniProt P47871 26-477); assay: cell-based or functional assay
[2] = target: human GLP-1 receptor (GLP-1R) (human, UniProt P43220 24-463); assay: cell-based or functional assay
human GLP-1 receptor (GLP-1R), sequence (P43220 24-463): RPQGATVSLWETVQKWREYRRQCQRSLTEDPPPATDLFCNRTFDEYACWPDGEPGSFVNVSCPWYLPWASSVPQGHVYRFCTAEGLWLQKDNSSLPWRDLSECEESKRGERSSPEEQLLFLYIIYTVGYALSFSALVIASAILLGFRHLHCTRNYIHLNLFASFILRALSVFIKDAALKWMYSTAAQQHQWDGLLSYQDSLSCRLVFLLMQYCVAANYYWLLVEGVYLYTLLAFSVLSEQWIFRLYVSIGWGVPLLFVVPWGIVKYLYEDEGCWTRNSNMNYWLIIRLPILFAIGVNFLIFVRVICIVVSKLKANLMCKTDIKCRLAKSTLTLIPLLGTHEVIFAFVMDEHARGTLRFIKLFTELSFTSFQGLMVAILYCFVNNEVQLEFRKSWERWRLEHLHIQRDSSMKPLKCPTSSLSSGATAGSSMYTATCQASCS

| hGCGR pEC50 (cAMP) [1] | hGLP1 pEC50 (cAMP) [2] | Binder |
| --- | --- | --- |
| 11.2 pEC50 | < 9 pEC50 | YSHGTFTSDYSKYLD[Aib]KRAQEFV[Aib]WLEDEPSSKAPPPS-OH (N-terminus assumed; SMILES CC(C)C[C@H](NC(=O)[C@H](Cc1ccc(O)cc1)NC(=O)[C@H](CCCCN)NC(=O)[C@H](CO)NC(=O)[C@H](Cc1ccc(O)cc1)NC(=O)[C@H](CC(=O)O)NC(=O)[C@H](CO)NC(=O)[C@@H](NC(=O)[C@H](Cc1ccccc1)NC(=O)[C@@H](NC(=O)CNC(=O)[C@H](Cc1c[nH]cn1)NC(=O)[C@H](CO)NC(=O)[C@@H](N)Cc1ccc(O)cc1)[C@@H](C)O)[C@@H](C)O)C(=O)N[C@@H](CC(=O)O)C(=O)NC(C)(C)C(=O)N[C@@H](CCCCN)C(=O)N[C@@H](CCCNC(=N)N)C(=O)N[C@@H](C)C(=O)N[C@@H](CCC(N)=O)C(=O)N[C@@H](CCC(=O)O)C(=O)N[C@@H](Cc1ccccc1)C(=O)N[C@H](C(=O)NC(C)(C)C(=O)N[C@@H](Cc1c[nH]c2ccccc12)C(=O)N[C@@H](CC(C)C)C(=O)N[C@@H](CCC(=O)O)C(=O)N[C@@H](CC(=O)O)C(=O)N[C@@H](CCC(=O)O)C(=O)N1CCC[C@H]1C(=O)N[C@@H](CO)C(=O)N[C@@H](CO)C(=O)N[C@@H](CCCCN)C(=O)N[C@@H](C)C(=O)N1CCC[C@H]1C(=O)N1CCC[C@H]1C(=O)N1CCC[C@H]1C(=O)N[C@@H](CO)C(=O)O)C(C)C) [Compound A23] |
| 11 pEC50 | < 9 pEC50 | YSHGTFTSDYSKYLD[Aib]KRAQEFV[Aib]WLEDEPSSGSPPPS-OH (N-terminus assumed; SMILES CC(C)C[C@H](NC(=O)[C@H](Cc1ccc(O)cc1)NC(=O)[C@H](CCCCN)NC(=O)[C@H](CO)NC(=O)[C@H](Cc1ccc(O)cc1)NC(=O)[C@H](CC(=O)O)NC(=O)[C@H](CO)NC(=O)[C@@H](NC(=O)[C@H](Cc1ccccc1)NC(=O)[C@@H](NC(=O)CNC(=O)[C@H](Cc1c[nH]cn1)NC(=O)[C@H](CO)NC(=O)[C@@H](N)Cc1ccc(O)cc1)[C@@H](C)O)[C@@H](C)O)C(=O)N[C@@H](CC(=O)O)C(=O)NC(C)(C)C(=O)N[C@@H](CCCCN)C(=O)N[C@@H](CCCNC(=N)N)C(=O)N[C@@H](C)C(=O)N[C@@H](CCC(N)=O)C(=O)N[C@@H](CCC(=O)O)C(=O)N[C@@H](Cc1ccccc1)C(=O)N[C@H](C(=O)NC(C)(C)C(=O)N[C@@H](Cc1c[nH]c2ccccc12)C(=O)N[C@@H](CC(C)C)C(=O)N[C@@H](CCC(=O)O)C(=O)N[C@@H](CC(=O)O)C(=O)N[C@@H](CCC(=O)O)C(=O)N1CCC[C@H]1C(=O)N[C@@H](CO)C(=O)N[C@@H](CO)C(=O)NCC(=O)N[C@@H](CO)C(=O)N1CCC[C@H]1C(=O)N1CCC[C@H]1C(=O)N1CCC[C@H]1C(=O)N[C@@H](CO)C(=O)O)C(C)C) [Compound A22] |
| 11.1 pEC50 | < 9 pEC50 | YSHGTFTSDYSKYLD[Aib]KRAQEFV[Aib]WLEDEPSSGEPPPS-OH (N-terminus assumed; SMILES CC(C)C[C@H](NC(=O)[C@H](Cc1ccc(O)cc1)NC(=O)[C@H](CCCCN)NC(=O)[C@H](CO)NC(=O)[C@H](Cc1ccc(O)cc1)NC(=O)[C@H](CC(=O)O)NC(=O)[C@H](CO)NC(=O)[C@@H](NC(=O)[C@H](Cc1ccccc1)NC(=O)[C@@H](NC(=O)CNC(=O)[C@H](Cc1c[nH]cn1)NC(=O)[C@H](CO)NC(=O)[C@@H](N)Cc1ccc(O)cc1)[C@@H](C)O)[C@@H](C)O)C(=O)N[C@@H](CC(=O)O)C(=O)NC(C)(C)C(=O)N[C@@H](CCCCN)C(=O)N[C@@H](CCCNC(=N)N)C(=O)N[C@@H](C)C(=O)N[C@@H](CCC(N)=O)C(=O)N[C@@H](CCC(=O)O)C(=O)N[C@@H](Cc1ccccc1)C(=O)N[C@H](C(=O)NC(C)(C)C(=O)N[C@@H](Cc1c[nH]c2ccccc12)C(=O)N[C@@H](CC(C)C)C(=O)N[C@@H](CCC(=O)O)C(=O)N[C@@H](CC(=O)O)C(=O)N[C@@H](CCC(=O)O)C(=O)N1CCC[C@H]1C(=O)N[C@@H](CO)C(=O)N[C@@H](CO)C(=O)NCC(=O)N[C@@H](CCC(=O)O)C(=O)N1CCC[C@H]1C(=O)N1CCC[C@H]1C(=O)N1CCC[C@H]1C(=O)N[C@@H](CO)C(=O)O)C(C)C) [Compound A21] |
